Measured values as given in paper PMC2831474 (Archives of biochemistry and biophysics, 2010).

Target: preformed F-actin (chicken pectoral muscle skeletal actin polymerized with 0.1 M KCl) (chicken, UniProt P68139 1-377)
Assay: co-sedimentation

stoichiometry N: 0.25 ± 0.03 tropomyosin/actin molar ratio
B1: N-acetylated striated muscle long α-tropomyosin (stTM) (natural protein)
chain: not shown
modifications: N-acetylated
